Reference: patent US20160215055A1 (PROMIS NEUROSCIENCES, published 2016)
Ends that are not written are not given here.

Target: T1, FasR epitope peptide LHHDGQFCH (human FasR residues 52-60) (human, also: coupled to BSA, linkage not given here)
T1 construct: Coated as BSA-peptide at 100 ng/well; The immunogens were KLH-Cys-X and OVA-Cys-X; also called BSA-specific peptide
T1 peptide: LHHDGQFCH
Assay: ELISA, BSA-peptide coated on plates

B1: AMF-3a-118 (antibody, V domains shown)
VH: QSVEESGGRLVTPGTPLTLTCKASGFSLSDSRVSWVRQAPGKGLEWIGIVGIGWNIYHANWAKGRFTISKTSSTTVDLKITSPTVEDTATYFCARGLGGGTVIWGPGTLVTVSL
VL: AQVLTQTPASVSAAVGGTVTISCQSSESVYKNNYLSWFQQKPGQPPKLLIYEASKLASGVSTRFKGSGSGTQFTLTISGVQCDDAATYYCLGEFSCYSGDCGTFGGGTAVVVKG
notes: Recombinant rabbit monoclonal IgG (RabMAb) expressed in HEK-293-6E cells
Question: Does B1 bind?
Answer: Result: binds
